Test results published in publication PMC8308607, “Antistaphylococcal Activity of the FtsZ Inhibitor C109” (Pathogens, 2021).

Biological target: the molecule itself
Assay: co-sedimentation; polymerization (sedimentation) assay: 12 μM SaFtsZ, 2 mM GTP, 50 mM MES pH 6.5, 5 mM Mg(CH3COO)2, 100 mM CH3CO2K, 10 min at 30 °C, ultracentrifuged at 350,000 x g for 10 min at 25 °C, pellet and supernatant on SDS-PAGE; with or without 50 μM C109

B1: wild-type FtsZ of S. aureus (natural protein, Staphylococcus aureus ATCC 25923, UniProt P0A031 1-390, looked up)
chain: MLEFEQGFNHLATLKVIGVGGGGNNAVNRMIDHGMNNVEFIAINTDGQALNLSKAESKIQIGEKLTRGLGAGANPEIGKKAAEESREQIEDAIQGADMVFVTSGMGGGTGTGAAPVVAKIAKEMGALTVGVVTRPFSFEGRKRQTQAAAGVEAMKAAVDTLIVIPNDRLLDIVDKSTPMMEAFKEADNVLRQGVQGISDLIAVSGEVNLDFADVKTIMSNQGSALMGIGVSSGENRAVEAAKKAISSPLLETSIVGAQGVLMNITGGESLSLFEAQEAADIVQDAADEDVNMIFGTVINPELQDEIVVTVIATGFDDKPTSHGRKSGSTGFGTSVNTSSNATSKDESFTSNSSNAQATDSVSERTHTTKEDDIPSFIRNREERRSRRTRR
notes: FtsZ, cell division protein, Staphylococcus aureus ATCC 25923; full-length ftsZ gene (1173 bp) amplified from genomic DNA; Cloned into pETSUMO by In-Fusion; also called SaFtsZ; full-length S. aureus FtsZ; source: E. coli BL21(DE3), purified (HisTrap HP nickel column, SUMO protease, Superdex-75 SEC)
B1: binds.
